Reference: patent publication US7985889B2, “AtMIN7 mediated disease resistance to Pseudomonas syringae in Arabidopsis” (priority 2007, dated 2011)
Residues, ends and D or L forms follow the SMILES beside them. *: point of attachment. Cbz = O=C(OCc1ccccc1)*

Assays:
[1] = tested on: transgenic plants expressing full-length HopM1; assay: DEX spraying of transgenic plants expressing full-length HopM1: leaf necrosis; type: in vivo, Arabidopsis
Procedure: (§1) Following inoculation, infected plants were monitored daily over a 3- to 4-day period for symptom development and bacterial multiplication. For experiments described in FIGS. 1 and 5, plants were sprayed with 30 μM dexamethasone (DEX) 24 h before bacterial inoculation (1×10^6 cfu/ml).

[2] = tested on: HopM1-mediated destabilization of AtMIN7; assay: Immunoblot of HopM1-mediated destabilization of AtMIN7 with protease/proteasome inhibitors; type: cell-based; conditions: N. benthamiana leaves co-expressing AtMIN7::HA and 6×His::HopM11-712
Source text: AtMIN-HA and 6×His-HopM1 proteins were detected using the HA and 6×His epitope antibodies, respectively. […] AtMIN7::HA and 6×His::HopM11-712 proteins were detected with HA and 6×His epitope antibodies, respectively.

Pst DC3000 ΔCEL mutant = assay: Complementation of virulence defect in transgenic Arabidopsis expressing HopM1 or truncated derivatives; type: in vivo; conditions: protein expressed in transgenic Arabidopsis after DEX
Procedure: as §1
(§2) Leaves were harvested and surface sterilized as follows: 1) whole leaves were removed from a host plant and gently mixed in a 70% ethanol solution for 1 minute. Leaves were blotted briefly on paper towels then rinsed in sterile distilled water for 1 minute, then blotted dry on paper towels. Leaf disks were excised from leaves with a 0.5 cm^2 or smaller cork borer, depending on the size of the sample leaves; 2) leaf disks from the leaves of 2 or more independent replicate plants were pooled for a single tissue sample and placed in a 1.5-mL microfuge tube with 100 μL sterile distilled water, the amount of leaf tissue per tube was recorded as leaf surface area. Three or more samples were harvested for each time point. […] The number of serial dilutions necessary to get countable colonies were determined for each sample, however dilutions to 10^−7 were usually sufficient for any bacterial strain; 7) The samples were plated on the appropriate medium (e.g., Low salt Luria Bertani) supplemented with the necessary antibiotics to select for the specific inoculated bacterial strain. […]

AtMIN7-HA = target: T1, AtMIN7-HA (Arabidopsis thaliana, UniProt F4IXW2, DEL212-213/INS429[…]); assay: Protein pull-down assay and immunoblot in N. benthamiana leaves; type: binding; conditions: transient co-expression in N. benthamiana leaves, Ni-NTA pull-down
T1 construct: expressed in transfected cells; host or cells: Nicotiana benthamiana leaves, Agrobacterium tumefaciens C58C1 co-infiltration (pBI121-AtMIN or pBAR1-AtMIN)
T1 sequence (F4IXW2 with tags, fused parts or gaps DEL212-213/INS429[withheld]): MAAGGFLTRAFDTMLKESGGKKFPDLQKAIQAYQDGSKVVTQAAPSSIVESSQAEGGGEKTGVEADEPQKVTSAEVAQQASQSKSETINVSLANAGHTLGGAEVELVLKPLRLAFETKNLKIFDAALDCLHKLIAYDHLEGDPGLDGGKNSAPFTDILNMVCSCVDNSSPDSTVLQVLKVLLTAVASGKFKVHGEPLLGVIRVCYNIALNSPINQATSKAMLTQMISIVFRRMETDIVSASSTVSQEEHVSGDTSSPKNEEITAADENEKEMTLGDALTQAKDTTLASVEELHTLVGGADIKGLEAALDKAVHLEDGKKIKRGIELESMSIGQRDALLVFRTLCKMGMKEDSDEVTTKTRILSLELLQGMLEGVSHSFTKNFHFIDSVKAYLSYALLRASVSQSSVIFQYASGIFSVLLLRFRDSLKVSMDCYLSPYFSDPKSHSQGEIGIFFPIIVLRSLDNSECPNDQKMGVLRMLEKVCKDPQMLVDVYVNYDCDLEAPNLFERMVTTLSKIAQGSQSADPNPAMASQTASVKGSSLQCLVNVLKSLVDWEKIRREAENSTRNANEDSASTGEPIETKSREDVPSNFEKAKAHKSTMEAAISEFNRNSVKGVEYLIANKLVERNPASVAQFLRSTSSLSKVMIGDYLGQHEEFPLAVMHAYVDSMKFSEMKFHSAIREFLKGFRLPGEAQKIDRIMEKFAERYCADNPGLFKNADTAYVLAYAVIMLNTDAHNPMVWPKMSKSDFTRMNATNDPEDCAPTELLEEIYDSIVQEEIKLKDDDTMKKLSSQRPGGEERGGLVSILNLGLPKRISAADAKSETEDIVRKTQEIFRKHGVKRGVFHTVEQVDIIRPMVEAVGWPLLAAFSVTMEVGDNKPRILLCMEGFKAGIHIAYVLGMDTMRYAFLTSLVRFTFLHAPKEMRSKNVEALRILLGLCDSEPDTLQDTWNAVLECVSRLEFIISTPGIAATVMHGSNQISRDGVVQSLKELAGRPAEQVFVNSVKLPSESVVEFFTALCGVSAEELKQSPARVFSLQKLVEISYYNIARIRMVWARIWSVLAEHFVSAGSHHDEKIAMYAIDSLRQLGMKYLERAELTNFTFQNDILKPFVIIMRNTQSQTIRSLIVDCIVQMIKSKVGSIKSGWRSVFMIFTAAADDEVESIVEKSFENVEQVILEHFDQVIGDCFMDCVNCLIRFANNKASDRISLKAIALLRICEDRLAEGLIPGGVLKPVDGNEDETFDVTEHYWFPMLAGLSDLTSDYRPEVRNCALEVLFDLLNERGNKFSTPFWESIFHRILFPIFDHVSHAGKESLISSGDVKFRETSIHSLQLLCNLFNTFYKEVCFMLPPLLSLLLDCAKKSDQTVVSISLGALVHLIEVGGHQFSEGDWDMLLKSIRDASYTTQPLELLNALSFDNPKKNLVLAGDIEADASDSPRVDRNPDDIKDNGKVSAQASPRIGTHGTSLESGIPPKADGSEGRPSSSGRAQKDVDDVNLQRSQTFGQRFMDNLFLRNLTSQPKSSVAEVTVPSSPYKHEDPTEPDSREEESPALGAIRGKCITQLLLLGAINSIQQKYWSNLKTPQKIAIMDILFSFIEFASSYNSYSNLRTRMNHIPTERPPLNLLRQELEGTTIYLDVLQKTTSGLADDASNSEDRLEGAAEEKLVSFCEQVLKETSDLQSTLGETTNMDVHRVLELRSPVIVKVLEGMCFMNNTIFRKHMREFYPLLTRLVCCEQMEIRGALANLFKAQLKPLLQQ
Source text: N. benthamiana plants were transiently transformed with HopM1 and AtMIN proteins. In brief, fully expanded N. benthamiana leaves were co-infiltrated with Agrobacterium tumefaciens C58 C1 (for an example of co-infiltration techniques, see, Hellens, et al. (2005) Plant Methods, 1:13; herein incorporated by reference) comprising plasmids and genes described herein (for example, see, Bechtold, et al. (1993) Comptes Rendus De L Academie Des Sciences Serie Iii-Sciences De La Vie-Life Sciences 316(10):1194-1199; herein incorporated by reference).
In brief: leaf disc fractions were homogenized in 1×SDS-polyacrylamide gel electrophoresis (PAGE) sample buffer, boiled for 5 min, and centrifuged for 2 minutes. Proteins in the supernatant were separated on SDS-PAGE gels and transferred to Immobilon-P membrane for immunoblotting procedures (Millipore Corp., Bedford, Mass.).
Protein pull-down analysis methods: N. benthamiana leaf discs were homogenized in lysis buffer (50 mM Tris-HCl pH=8.0, 250 mM NaCl, 10 mM β-mercaptoethanol, 1% Triton X100, 1 mM PMSF, plant protease inhibitor cocktail [Sigma Co.]). Total protein extracts were collected after centrifugation of the homogenate at 20,000-x g for 15 min at 4° C. to remove insoluble materials. […] AtMIN10-HA was detected using the HA epitope antibody.

[3] = tested on: Pst DC3000 ΔCEL mutant-pORF43 bacteria; assay: Bacterial multiplication and disease symptoms in transgenic Arabidopsis expressing HopM1 truncated derivatives; type: in vivo; conditions: fragment expressed in transgenic Arabidopsis, compared with Col-0 gl1 or other truncated derivatives
Procedure: as §1, §2

Pst DC3000 = assay: as above; type: in vivo; conditions: fragment expressed in transgenic Arabidopsis
Procedure: as §1, §2

AtMIN7 = assay: Detection of polyubiquitinated AtMIN7 in planta (western blot, ubiquitin antibody); type: cell-based, Nicotiana benthamiana; conditions: MG132-treated N. benthamiana leaves
Source text: Left: AtMIN7::HA and 6×His::HopM1-300, 6×His::HopM301-712 or 6×His::HopM1-712 were transiently co-expressed in MG132-treated N. benthamiana leaves. Ubiquitinated proteins were detected by western blot (WB) with a polyclonal ubiquitin (Ub) antibody (Sigma Co.). Right: AtMIN7::HA and 6×His::HopM1-712 were transiently co-expressed in 1% DMSO(−)- or MG132-treated N. benthamiana leaves. AtMIN7 was immunoprecipitated (IP) using a polyclonal AtMIN7 antibody. Ubiquitinated AtMIN7 protein was detected by western blot (WB) with a polyclonal ubiquitin (Ub) antibody (Sigma Co.). See Materials and Methods for transient expression and immunoprecipitation of AtMIN7 and HopM1 in N. benthamiana leaves.

## C[C@@H]1C[C@H]2[C@@H]3CCC4=CC(=O)C=C[C@]4(C)[C@@]3(F)[C@@H](O)C[C@]2(C)[C@@]1(O)C(=O)CO [DEX, dexamethasone]
[1]; 0.003 μM DEX spray
  leaf necrosis: did not induce leaf necrosis
[1]; 30 μM DEX spray
  time to rapid leaf necrosis: ≤ 10 h

## CC(C)C[C@@H](C=O)NC(=O)[C@H](CC(C)C)NC(=O)[C@H](CC(C)C)NC(=O)OCc1ccccc1 [MG132] (Cbz-Leu-Leu-Leu-aldehyde)
[2]
  effect on HopM1-mediated destabilization of AtMIN7: blocked

## CC[C@H](C)[C@H](NC(=O)[C@H]([C@@H](C)CC)N(C)C(C)=O)C(=O)N[C@H](C(=O)N[C@@H](CC(C)C)C(=O)[C@@]1(C)CO1)[C@@H](C)O [epoxomicin]
[2]
  effect on HopM1-mediated destabilization of AtMIN7: blocked

B1: HopM1101-712: HopM1 truncated derivative lacking the first 100 aa (SEQ ID NO:98) (protein, listed as Pseudomonas syringae)
chain: LLQAFKAEHGTAPVSGAPMISSRAALLIGSLLQAEPLPFEVMAEKLSPERYQLKQFQGSDLQQRLEKFAQPGQIPDKAEVGQLIKGFAQSVADQLEHFQLMHDASPATVGQHAKADKATLAVSQTALGEYAGRASKAIGEGLSNSIASLDEHISALDLTLQDAEQGNKESLHADRQALVDAKTTLVGLHADFVKSPEAKRLASVAAHTQLDNVVSDLVTARNTVGGWKGAGPIVAAAVPQFLSSMTHLGYVRLSTSDKLRDTIPETSSDANMLKASIIGMVAGIAHETVNSVVKPMFQAALQKTGLNERLNMVPMKAVDTNTVIPDPFELKSEHGELVKKTPEEVAQDKAFVKSERALLNQKKVQGSSTHPVGELMAYSAFGGSQAVRQMLNDVHQINGQTLSARALASGFGGAVSASSQTLLQLKSNYVDPQGRKIPVFTPDRAESDLKKDLLKGMDLREPSVRTTFYSKALSGIQSSALTSALPPVTAQAEGASGTLSAGAILRNMALAATGSVSYLSTLYTNQSVTAEAKALKAAGMGGATPMLDRTETALNNIRHPNRESLPHTFQKSTLSGIPRVAENAYHMGRGALQLPTQMAVDTVRVVDEGVLNAVASAREALKQPTKDDDALRALEEGLLDPR
Pst DC3000 ΔCEL mutant
  complementation of the virulence defect (multiplication, chlorosis) of the Pst DC3000 ΔCEL mutant: partially restored

B2: 6×His-HopM1301-712: 6×His-tagged C-terminal HopM1 fragment, amino acids 301-712 (protein)
chain: GPIVAAAVPQFLSSMTHLGYVRLSTSDKLRDTIPETSSDANMLKASIIGMVAGIAHETVNSVVKPMFQAALQKTGLNERLNMVPMKAVDTNTVIPDPFELKSEHGELVKKTPEEVAQDKAFVKSERALLNQKKVQGSSTHPVGELMAYSAFGGSQAVRQMLNDVHQINGQTLSARALASGFGGAVSASSQTLLQLKSNYVDPQGRKIPVFTPDRAESDLKKDLLKGMDLREPSVRTTFYSKALSGIQSSALTSALPPVTAQAEGASGTLSAGAILRNMALAATGSVSYLSTLYTNQSVTAEAKALKAAGMGGATPMLDRTETALNNIRHPNRESLPHTFQKSTLSGIPRVAENAYHMGRGALQLPTQMAVDTVRVVDEGVLNAVASAREALKQPTKDDDALRALEEGLLDPR
modifications: left off: small tags and cut ends
AtMIN7-HA
  physical interaction with AtMIN7-HA: no interaction

B3: HopM11-300: N-terminal protective fragment of HopM1, amino acids 1-300 (SEQ ID NO:82) (protein, listed as Pseudomonas syringae)
chain: MISSRIGGAGGVELSRVNQQHDTVPAQTAHPNAVTAGMNPPLTPDQSGSHATESSSAGAARLNVAARHTQLLQAFKAEHGTAPVSGAPMISSRAALLIGSLLQAEPLPFEVMAEKLSPERYQLKQFQGSDLQQRLEKFAQPGQIPDKAEVGQLIKGFAQSVADQLEHFQLMHDASPATVGQHAKADKATLAVSQTALGEYAGRASKAIGEGLSNSIASLDEHISALDLTLQDAEQGNKESLHADRQALVDAKTTLVGLHADFVKSPEAKRLASVAAHTQLDNVVSDLVTARNTVGGWKGA
[3]
  disease symptoms (necrosis and chlorosis) and bacterial multiplication within plants: significantly reduced
Pst DC3000
  susceptibility to Pst DC3000: still susceptible
AtMIN7-HA
  physical interaction with AtMIN7-HA: physical interaction

B4: full-length HopM1: Pst DC3000 HopM1, a 712-aa type III effector virulence protein (SEQ ID NO:34) (protein)
chain: MISSRIGGAGGVELSRVNQQHDTVPAQTAHPNAVTAGMNPPLTPDQSGSHATESSSAGAARLNVAARHTQLLQAFKAEHGTAPVSGAPMISSRAALLIGSLLQAEPLPFEVMAEKLSPERYQLKQFQGSDLQQRLEKFAQPGQIPDKAEVGQLIKGFAQSVADQLEHFQLMHDASPATVGQHAKADKATLAVSQTALGEYAGRASKAIGEGLSNSIASLDEHISALDLTLQDAEQGNKESLHADRQALVDAKTTLVGLHADFVKSPEAKRLASVAAHTQLDNVVSDLVTARNTVGGWKGAGPIVAAAVPQFLSSMTHLGYVRLSTSDKLRDTIPETSSDANMLKASIIGMVAGIAHETVNSVVKPMFQAALQKTGLNERLNMVPMKAVDTNTVIPDPFELKSEHGELVKKTPEEVAQDKAFVKSERALLNQKKVQGSSTHPVGELMAYSAFGGSQAVRQMLNDVHQINGQTLSARALASGFGGAVSASSQTLLQLKSNYVDPQGRKIPVFTPDRAESDLKKDLLKGMDLREPSVRTTFYSKALSGIQSSALTSALPPVTAQAEGASGTLSAGAILRNMALAATGSVSYLSTLYTNQSVTAEAKALKAAGMGGATPMLDRTETALNNIRHPNRESLPHTFQKSTLSGIPRVAENAYHMGRGALQLPTQMAVDTVRVVDEGVLNAVASAREALKQPTKDDDALRALEEGLLDPR
modifications: Pseudomonas syringae pv. tomato str. DC3000
Pst DC3000 ΔCEL mutant
  complementation of the virulence defect (multiplication, chlorosis) of the Pst DC3000 ΔCEL mutant: almost fully complemented
AtMIN7
  polyubiquitination of AtMIN7 in vivo: enhanced
